By pKd is commonly meant the negative decadic logarithm of the Kd, by convention in mol/L. Read a high pKd as a low Kd.

pKd: −log10 of the molar value.

Here are results for one substance from PMC11267267, “Metabolic Recoding of NSUN2‐Mediated m^5C Modification Promotes the Progression of Colorectal Cancer via the NSUN2/YBX1/m^5C‐ENO1 Positive Feedback Loop” (Advanced Science, 2024).

This data set concerns YBX1 cold shock domain (MST). The data set is described as follows: MST. Conditions: not given in the material (MST and pull-down methods text missing).

unmethylated ENO1 RNA oligo (MST) gave a pKd of 5.00.
